From patent US9580733B2, “Methods of producing 6-carbon chemicals via methyl-ester shielded carbon chain elongation” (INVISTA North America S.á r.l., priority 2012, dated 2017)
Values belong to the molecule of their own block, whether it stands above or below them.

How the values were obtained:
Format in all cases: biochemical
[1] = ω-transaminase activity assay, forward direction, adipate semialdehyde to 6-aminohexanoate; conditions: cell free extract, 10 mM adipate semialdehyde, 10 mM L-alanine, 25° C., 4 h, vs empty vector control, FIG. 16
Procedure: (§1) A nucleotide sequence encoding a His-tag was added to the genes from Chromobacterium violaceum, Pseudomonas aeruginosa, Pseudomonas syringae, Rhodobacter sphaeroides, and Vibrio fluvialis encoding the ω-transaminases of SEQ ID NOs: 7, 8, 9, 10 and 12, respectively (see FIGS. 7E and 7F) such that N-terminal HIS tagged ω-transaminases could be produced. Each of the resulting modified genes was cloned into a pET21a expression vector under control of the T7 promoter and each expression vector was transformed into a BL21[DE3] E. coli host. The resulting recombinant E. coli strains were cultivated at 37° C. in a 250 mL shake flask culture containing 50 mL LB media and antibiotic selection pressure, with shaking at 230 rpm. Each culture was induced overnight at 16° C. using 1 mM IPTG.
(§2) The pellet from each induced shake flask culture was harvested via centrifugation. Each pellet was resuspended and lysed via sonication. The cell debris was separated from the supernatant via centrifugation and the cell free extract was used immediately in enzyme activity assays.
Enzyme activity in the forward direction (i.e., adipate semialdehyde to 6-aminohexanoate) was confirmed for the transaminases of SEQ ID NO 7, SEQ ID NO 8, SEQ ID NO 9, SEQ ID NO 10 and SEQ ID NO 12. Enzyme activity assays were performed in a buffer composed of a final concentration of 50 mM HEPES buffer (pH=7.5), 10 mM adipate semialdehyde, 10 mM L-alanine and 100 μM pyridoxyl 5′ phosphate. Each enzyme activity assay reaction was initiated by adding a cell free extract of the ω-transaminase gene product or the empty vector control to the assay buffer containing the adipate semialdehyde and incubated at 25° C. for 4 h, with shaking at 250 rpm. The formation of pyruvate was quantified via RP-HPLC.

[2] = ω-transaminase activity assay, reverse direction, 6-aminohexanoate to adipate semialdehyde; conditions: cell free extract, 10 mM 6-aminohexanoate, 10 mM pyruvate, 25° C., 24 h, vs empty vector control, FIG. 15
Procedure: as §1, §2
Enzyme activity assays in the reverse direction (i.e., 6-aminohexanoate to adipate semialdehyde) were performed in a buffer composed of a final concentration of 50 mM HEPES buffer (pH=7.5), 10 mM 6-aminohexanoate, 10 mM pyruvate and 100 μM pyridoxyl 5′ phosphate. Each enzyme activity assay reaction was initiated by adding cell free extract of the ω-transaminase gene product or the empty vector control to the assay buffer containing the 6-aminohexanoate and incubated at 25° C. for 24 h, with shaking at 250 rpm. The formation of L-alanine from pyruvate was quantified via RP-HPLC.

[3] = Thioesterase enzyme activity assay, adipyl-CoA to adipate; conditions: 667 μM adipyl-CoA, pH 7.4, 37° C., 20 min, vs empty vector control, FIG. 8
Procedure: A sequence encoding an N-terminal His-tag was added to the genes from Escherichia coli encoding the thioesterases of SEQ ID NOs: 1 and 2 respectively (see FIG. 7A), such that an N-terminal HIS tagged thioesterase could be produced. Each of the resulting modified genes was cloned into a pET15b expression vector under control of the T7 promoter. Each expression vector was transformed into a BL21[DE3] E. coli host. The resulting recombinant E. coli strains were cultivated at 37° C. in a 500 mL shake flask culture containing 50 mL Luria Broth (LB) media and antibiotic selection pressure, with shaking at 230 rpm. The culture was induced overnight at 17° C. using 0.5 mM IPTG.
The pellet from the induced shake flask culture was harvested via centrifugation. The pellet was resuspended and lysed in Y-per™ solution (ThermoScientific, Rockford, Ill.). The cell debris was separated from the supernatant via centrifugation. […]
The enzyme activity assay was performed in triplicate in a buffer composed of 50 mM phosphate buffer (pH=7.4), 0.1 mM Ellman's reagent, and 667 μM of adipyl-CoA (as substrate). […] The release of Coenzyme A was monitored by absorbance at 412 nm. The absorbance associated with the substrate only control, which contained boiled enzyme, was subtracted from the active enzyme assay absorbance and compared to the empty vector control.

B3: SEQ ID NO 2: Escherichia coli thioesterase encoded by YciA (GenBank Accession No. AAB60068.1), N-terminal His-tagged (protein, listed as Escherichia coli)
chain: MSTTHNVPQGDLVLRTLAMPADTNANGDIFGGWLMSQMDIGGAILAKEIAHGRVVTVRVEGMTFLRPVAVGDVVCCYARCVQKGTTSVSINIEVWVKKVASEPIGQRYKATEALFKYVAVDPEGKPRALPVE
modifications: N-terminal His tag
thioesterase activity for converting adipyl-CoA to adipate (release of Coenzyme A, absorbance at 412 nm) [3]: accepted adipyl-CoA as substrate

B4: SEQ ID NO 8: Chromobacterium violaceum ω-transaminase (Genbank Accession No. AAQ59697.1) (protein, listed as Chromobacterium violaceum)
chain: MQKQRTTSQWRELDAAHHLHPFTDTASLNQAGARVMTRGEGVYLWDSEGNKIIDGMAGLWCVNVGYGRKDFAEAARRQMEELPFYNTFFKTTHPAVVELSSLLAEVTPAGFDRVFYTNSGSESVDTMIRMVRRYWDVQGKPEKKTLIGRWNGYHGSTIGGASLGGMKYMHEQGDLPIPGMAHIEQPWWYKHGKDMTPDEFGVVAARWLEEKILEIGADKVAAFVGEPIQGAGGVIVPPATYWPEIERICRKYDVLLVADEVICGFGRTGEWFGHQHFGFQPDLFTAAKGLSSGYLPIGAVFVGKRVAEGLIAGGDFNHGFTYSGHPVCAAVAHANVAALRDEGIVQRVKDDIGPYMQKRWRETFSRFEHVDDVRGVGMVQAFTLVKNKAKRELFPDFGEIGTLCRDIFFRNNLIMRACGDHIVSAPPLVMTRAEVDEMLAVAERCLEEFEQTLKARGLA
ω-transaminase activity for converting adipate semialdehyde to 6-aminohexanoate (formation of pyruvate, RP-HPLC) [1]: accepted adipate semialdehyde as substrate

B5: SEQ ID NO 1: Escherichia coli thioesterase encoded by tesB (GenBank Accession No. AAA24665.1), N-terminal His-tagged (protein, listed as Escherichia coli)
chain: MSQALKNLLTLLNLEKIEEGLFRGQSEDLGLRQVFGGQVVGQALYAAKETVPEERLVHSFHSYFLRPGDSKKPIIYDVETLRDGNSFSARRVAAIQNGKPIFYMTASFQAPEAGFEHQKTMPSAPAPDGLPSETQIAQSLAHLLPPVLKDKFICDRPLEVRPVEFHNPLKGHVAEPHRQVWIRANGSVPDDLRVHQYLLGYASDLNFLPVALQPHGIGFLEPGIQIATIDHSMWFHRPFNLNEWLLYSVESTSASSARGFVRGEFYTQDGVLVASTVQEGVMRNHN
modifications: N-terminal His tag
thioesterase activity for converting adipyl-CoA to adipate (release of Coenzyme A, absorbance at 412 nm) [3]: accepted adipyl-CoA as substrate

Second part, led by results:

ω-transaminase activity for converting 6-aminohexanoate to adipate semialdehyde (formation of L-alanine from pyruvate, RP-HPLC) [2]: accepted 6-aminohexanote as substrate
B1: SEQ ID NO 9: Pseudomonas aeruginosa ω-transaminase (Genbank Accession No. AAG08191.1) (protein, listed as Pseudomonas aeruginosa)
chain: MNARLHATSPLGDADLVRADQAHYMHGYHVFDDHRVNGSLNIAAGDGAYIYDTAGNRYLDAVGGMWCTNIGLGREEMARTVAEQTRLLAYSNPFCDMANPRAIELCRKLAELAPGDLDHVFLTTGGSTAVDTAIRLMHYYQNCRGKRAKKHVITRINAYHGSTFLGMSLGGKSADRPAEFDFLDERIHHLACPYYYRAPEGLGEAEFLDGLVDEFERKILELGADRVGAFISEPVFGSGGVIVPPAGYHRRMWELCQRYDVLYISDEVVTSFGRLGHFFASQAVFGVQPDIILTAKGLTSGYQPLGACIFSRRIWEVIAEPDKGRCFSHGFTYSGHPVACAAALKNIEIIEREGLLAHADEVGRYFEERLQSLRDLPIVGDVRGMRFMACVEFVADKASKALFPESLNIGEWVHLRAQKRGLLVRPIVHLNVMSPPLILTREQVDTVVRVLRESIEETVEDLVRAGHR
ω-transaminase activity for converting adipate semialdehyde to 6-aminohexanoate (formation of pyruvate, RP-HPLC) [1]: accepted adipate semialdehyde as substrate

ω-transaminase activity for converting 6-aminohexanoate to adipate semialdehyde (formation of L-alanine from pyruvate, RP-HPLC) [2]: accepted 6-aminohexanote as substrate
B2: SEQ ID NO 10: Pseudomonas syringae ω-transaminase (Genbank Accession No. AAY39893.1) (protein, listed as Pseudomonas syringae)
chain: MSANNPQTLEWQALSSEHHLAPFSDYKQLKEKGPRIITRAEGVYLWDSEGNKILDGMSGLWCVAIGYGREELADAASKQMRELPYYNLFFQTAHPPVLELAKAISDIAPEGMNHVFFTGSGSEGNDTMLRMVRHYWALKGQPNKKTIISRVNGYHGSTVAGASLGGMTYMHEQGDLPIPGVVHIPQPYWFGEGGDMTPDEFGIWAAEQLEKKILELGVENVGAFIAEPIQGAGGVIVPPDSYWPKIKEILSRYDILFAADEVICGFGRTSEWFGSDFYGLRPDMMTIAKGLTSGYVPMGGLIVRDEIVAVLNEGGDFNHGFTYSGHPVAAAVALENIRILREEKIVERVRSETAPYLQKRLRELSDHPLVGEVRGVGLLGAIELVKDKTTRERYTDKGAGMICRTFCFDNGLIMRAVGDTMIIAPPLVISFAQIDELVEKARTCLDLTLAVLQG
ω-transaminase activity for converting adipate semialdehyde to 6-aminohexanoate (formation of pyruvate, RP-HPLC) [1]: accepted adipate semialdehyde as substrate

ω-transaminase activity for converting 6-aminohexanoate to adipate semialdehyde (formation of L-alanine from pyruvate, RP-HPLC) [2]: accepted 6-aminohexanote as substrate
B6: SEQ ID NO 12: Escherichia coli ω-transaminase, gene product of YgjG (Genbank Accession No. AAA57874.1) (protein, listed as Escherichia coli)
chain: MNRLPSSASALACSAHALNLIEKRTLDHEEMKALNREVIEYFKEHVNPGFLEYRKSVTAGGDYGAVEWQAGSLNTLVDTQGQEFIDCLGGFGIFNVGHRNPVVVSAVQNQLAKQPLHSQELLDPLRAMLAKTLAALTPGKLKYSFFCNSGTESVEAALKLAKAYQSPRGKFTFIATSGAFHGKSLGALSATAKSTFRKPFMPLLPGFRHVPFGNIEAMRTALNECKKTGDDVAAVILEPIQGEGGVILPPPGYLTAVRKLCDEFGALMILDEVQTGMGRTGKMFACEHENVQPDILCLAKALGGGVMPIGATIATEEVFSVLFDNPFLHTTTFGGNPLACAAALATINVLLEQNLPAQAEQKGDMLLDGFRQLAREYPDLVQEARGKGMLMAIEFVDNEIGYNFASEMFRQRVLVAGTLNNAKTIRIEPPLTLTIEQCELVIKAARKALAAMRVSVEEA
ω-transaminase activity for converting adipate semialdehyde to 6-aminohexanoate (formation of pyruvate, RP-HPLC) [1]: accepted adipate semialdehyde as substrate
